For data set [1], the system named is GFP-expressing hTERT-RPE1 cells. Nature of the data set: GFP depletion by FACS after lentiviral transduction with enhanced 3Cs fixed-pair gRNA constructs. It counts as cell-based, human. The conditions noted are these: transduced 48 hours, then puromycin selection another 4 days. How it is done: (§1) GFP-expressing hTERT-RPE1 cells were transduced with them for 48 hours, after which a selection pressure (puromycin) for another 4 days was applied before the cells were analyzed by FACS and immunoblotting for which wildtype (wt) and GFP-positive cells (GFP) served as controls. […] In addition, GFP deletion efficiency was confirmed by immunoblotting of GFP, confirming the FACS finding (FIG. 15b). Fluorescent proteins expressed in human cells reflect an artificial situation, the inventors therefore asked if endogenously expressed genes in RPE1 cells would similarly be depleted more efficiently by two gRNAs. To address this question, RPE1 cells were transduced with fixed-pair gRNA constructs encoding for NHT/NHT, NHT/Cdk2, Cdk2/NHT, or Cdk2/Cdk2.
RPE1 cells were seeded at an appropriate density for each experiment with a maximal confluency of 60-70% in DMEM/F12 (Thermo Fisher Scientific), supplemented with 10% FBS and 1% penicillin-ptreptomycin (Sigma). At the day of transduction, polybrene was added to the media to a final concentration of 8 μg/mL, as well as viral supernatant according to the previously determined viral titer. The next morning, the media was replaced with fresh media and the cells were subjected to antibiotic selection or experimental analysis.
All samples were analyzed on a FACSCanto II flow cytometer (BD Biosciences), and data were processed by FlowJo software (FlowJo, LLC). Gating was carried out on the basis of viable and single cells that were identified on the basis of their scatter morphology.

In a further data set the test system is Cdk2. Nature of the data set: Depletion of endogenous Cdk2 by fixed-pair gRNA constructs (immunoblot). In kind it is cell-based, human. The conditions noted are these: RPE1 cells, compared with either single gRNA. How it is done:
as §1
Preparation of lysates and immunoblot analyses were performed as described previously using Tris lysis buffer (50 mM Tris-HCl (pH 7.8), 150 mM NaCl, 1% IGEPAL CA-630) containing 20 mM NaF, 20 mM β-glycerophosphate, 0.3 mM Na-vanadate, 20 μg/ml RNase A, 20 μg/ml DNase and 1/300 protease inhibitor cocktail (Sigma-Aldrich, P8340) and phosphatase inhibitor cocktail #2 (Sigma-Aldrich, P5726). […] Protein levels were visualized with Pierce ECL Western Blotting Substrate on a BioRad ChemiDoc MP imaging system and analyzed with Bio-Rad Image Lab software (version 4.1 build 16).
For orientation: In western blotting, separated proteins are transferred to a membrane and probed.

These results are taken from US12286624B2, “Method for generating a gene editing vector with fixed guide RNA pairs” (Johann Wolfgang Goethe-Universität Frankfurt am Main, priority 2018, dated 2025).

B1: GFP2-NHT: 3Cs fixed-pair construct of one GFP-targeting gRNA and one NHT control gRNA (nucleic acid)
guide: GAAAGGACGAAACACCGTCAGGATCAGGGTGTATGGCGTTTTAGAGCTATGCTTTTTTAAAAAAGCATAGCTCTAAAACCGATGTTGTGGCGGATCTTGCGAGGTACCCAAGCG
Turning to B1, the “GFP-positive cells by FACS” value in data set [1] is recorded as “strong reduction of GFP-positive cells”.

B2: NHT-GFP2: 3Cs fixed-pair construct of one NHT control gRNA and one GFP-targeting gRNA (nucleic acid)
guide: GAAAGGACGAAACACCGGAAGGGCATCGACTTCAAGGGTTTTAGAGCTATGCTTTTTTAAAAAAGCATAGCTCTAAAACGCATGTTGTGGCGGATCTTGCGAGGTACCCAAGCG
Take B2: the “GFP-positive cells by FACS” value in data set [1] is “strong reduction of GFP-positive cells”.

B3: GFP2-GFP1: fixed-pair combination of two different GFP-targeting gRNAs (nucleic acid)
guide: GAAAGGACGAAACACCGGAAGGGCATCGACTTCAAGGGTTTTAGAGCTATGCTTTTTTAAAAAAGCATAGCTCTAAAACCGATGTTGTGGCGGATCTTGCGAGGTACCCAAGCG
modifications: expressed or natural sequence
notes: fixed-pair combination of two different GFP-targeting gRNAs
Consider B3, for which the “GFP-positive cells by FACS” value in data set [1] was “below the detection limit”.

B4: Cdk2/Cdk2: fixed-pair gRNA construct with two gRNAs targeting Cdk2 (nucleic acid)
guide: GAAAGGACGAAACACCGACAGGTTGCCAGTAAAAACAGTTTAGAGACGCTCGTCTCTAAACCTCCCGTCAACTTGTTTCTGCGAGGTACCCAAGCG
modifications: expressed or natural sequence
Turning to B4, in the data set with Cdk2, the “depletion of endogenous Cdk2” value was “more efficiently depleted”.
